Experimental data published in patent publication US20030119772A1.

Biological target: ZEB expressed in NIH 3T3 cells in the p21 promoter luciferase reporter assay
Assay: cell-based or functional assay

Row | p21-promoter-driven luciferase reporter in NIH 3T3 cells, relative light units [fold] | p21-promoter-driven luciferase reporter (p53-mediated transactivation) in NIH 3T3 cells [fold] | Substance
1 | 2 | – | 53BP1 co-expressed in NIH 3T3 cells in the p21 promoter luciferase reporter assay
2 | – | 4 | CtBP1
